The values that follow come from the RNAGym collection of RNA variant scans (doi:10.7554/elife.90254).

Sequences and labels used below:
B1: OR4K15 (parent)
chain: GUUAACGGUCAUAGGCCAUGGAAACUAGGAGCACCAUUUCGCUGCCAGUGAAGAAAUGAACAAAGAAAAUCUGGGCCAGGCAGGCAUCAAAAGAAAUAGUCUUGCGCUCAACCAGAAAGUCUGUAAUCAUUUUAAGGGUA

The variants in the data set derive from B1. As to the kind of experiment: self-cleavage, relative activity (ratio to wild type); higher = more cleavage; in vitro, sequencing; the parent is a self-cleaving ribozyme.
As for GUUAACGGUCAUAGGCCAUGGAAACUAGGAGCACCAUUUCGCUGCCAGUGAAGAAAUGAACAAAGAAAAUCUGGGCCGGGCAGGCAUCAAAAGAAGUAGUCUUGCGCUCAACCAGAAAGUCUGUAAUCAUUUUAAGGGUA [A78G A96G], the self-cleavage amounted to 0.24.
The value for GUUAACGGUCAUAGGCCAUGGAAACUAGGAGCACCAUUUCGCUGCCAGUGAAGAAAUGAACAAAGAAAAUCUGGGCCCGGCAGGCAUCAAAAGAAAUAGUCAUGCGCUCAACCAGAAAGUCUGUAAUCAUUUUAAGGGUA [A78C U102A] was 0.02.
For the variant GUUAACGGUCAUAGGCCAUGGAAACUAGGAGCACCAUUUCGCUGCCAGUGAAGAAAUGAACAAAGAAAAUCUGGGCCCGGCAGGCUUCAAAAGAAAUAGUCUUGCGCUCAACCAGAAAGUCUGUAAUCAUUUUAAGGGUA [A78C A86U], the self-cleavage was found to be 0.19.
The value for GUUAACGGUCAUAGGCCAUGGAAACUAGGAGCACCAUUUCGCUGCCAGUGAAGAAAUGAACAAAGAAAAUCUGGGCCCGGCAGGCAUCAAAAGAAAUAGUCUUGCGCUCGACCAGAAAGUCUGUAAUCAUUUUAAGGGUA [A78C A110G] was 0.13.
For the variant GUUAACGGUCAUAGGCCAUGGAAACUAGGAGCACCAUUUCGCUGCCAGUGAAGAAAUGAACAAAGAAAAUCUGGGCCCGGCAGGCAUCAAAAGAAAUUGUCUUGCGCUCAACCAGAAAGUCUGUAAUCAUUUUAAGGGUA [A78C A98U], the self-cleavage turned out to be 0.58.
Take GUUAACGGUCAUAGGCCAUGGAAACUAGGAGCACCAUUUCGCUGCCAGUGAAGAAAUGAACAAAGAAAAUCUGGGCCGGGCAGGCAUCAAAAGAAAUAGUCUUGCGCUCAACCAGAAAGUCUGUGAUCAUUUUAAGGGUA [A78G A125G]: the self-cleavage was found to be 0.1.
In the case of GUUAACGGUCAUAGGCCAUGGAAACUAGGAGCACCAUUUCGCUGCCAGUGAAGAAAUGAACAAAGAAAAUCUGGGCCGGGCAGGCAUCAAAAGAAAUAGUCUUGCGCUCGACCAGAAAGUCUGUAAUCAUUUUAAGGGUA [A78G A110G], the self-cleavage came out at 0.11.
Turning to GUUAACGGUCAUAGGCCAUGGAAACUAGGAGCACCAUUUCGCUGCCAGUGAAGAAAUGAACAAAGAAAAUCUGGGCCGGGCAGGCAUCAAAAGAAAUAGUCUUGCGCUCCACCAGAAAGUCUGUAAUCAUUUUAAGGGUA [A78G A110C], the self-cleavage was 0.3.
As for GUUAACGGUCAUAGGCCAUGGAAACUAGGAGCACCAUUUCGCUGCCAGUGAAGAAAUGAACAAAGAAAAUCUGGGCCCGGCAGGCAUCAAAAGAAAUAGUCUUGCGCUCAACCAGAAAGUCUGUAAUCAUUUUAAGGGUA [A78C], the self-cleavage is 0.18.
Next, GUUAACGGUCAUAGGCCAUGGAAACUAGGAGCACCAUUUCGCUGCCAGUGAAGAAAUGAACAAAGAAAAUCUGGGCCGGGCAGGCAUCAAAAGAAAUAGUCUUGCGCUCAACCAGAAAGUCUGUAAUCAUUUUAAGGGUA [A78G]: 0.22; GUUAACGGUCAUAGGCCAUGGAAACUAGGAGCACCAUUUCGCUGCCAGUGAAGAAAUGAACAAAGAAAAUCUGGGCCCGGCAGGCAUCAAAAGAAAUAGUCUUGCGCUCAACCAGAAAGUCUGUAAUUAUUUUAAGGGUA [A78C C128U]: 0.29; GUUAACGGUCAUAGGCCAUGGAAACUAGGAGCACCAUUUCGCUGCCAGUGAAGAAAUGAACAAAGAAAAUCUGGGCUAGGCAGGCAUCAAAAGAAAUAGUCUCGCGCUCAACCAGAAAGUCUGUAAUCAUUUUAAGGGUA [C77U U103C]: 2.12.
Regarding GUUAACGGUCAUAGGCCAUGGAAACUAGGAGCACCAUUUCGCUGCCAGUGAAGAAAUGAACAAAGAAAAUCUGGGCCGGGCAGGCAUCAAAAGAGAUAGUCUUGCGCUCAACCAGAAAGUCUGUAAUCAUUUUAAGGGUA [A78G A95G], the self-cleavage turned out to be 0.26.
Next, GUUAACGGUCAUAGGCCAUGGAAACUAGGAGCACCAUUUCGCUGCCAGUGAAGAAAUGAACAAAGAAAAUCUGGGCCGGGCAGGCAUAAAAAGAAAUAGUCUUGCGCUCAACCAGAAAGUCUGUAAUCAUUUUAAGGGUA [A78G C88A]: 0.17; GUUAACGGUCAUAGGCCAUGGAAACUAGGAGCACCAUUUCGCUGCCAGUGAAGAAAUGAACAAAGAAAAUCUGGGCCGGGCAGGCAUCAAAAGAAAUAGUCUUGCGCUCAACCAGAUAGUCUGUAAUCAUUUUAAGGGUA [A78G A117U]: 0.1; GUUAACGGUCAUAGGCCAUGGAAACUAGGAGCACCAUUUCGCUGCCAGUGAAGAAAUGAACAAAGAAAAUCUGGGCCGGGCAGGCAUCAAAAGAAAUAGUCUUGCGCUCAACCAGACAGUCUGUAAUCAUUUUAAGGGUA [A78G A117C]: 0.22.
Regarding GUUAACGGUCAUAGGCCAUGGAAACUAGGAGCACCAUUUCGCUGCCAGUGAAGAAAUGAACAAAGAAAAUCUGGGCUAGGCAGGCAUCAAAAGAAAUAGUCUUGCGCUCAACCAGAAAGUCUGUAAUCAUUUCAAGGGUA [C77U U133C], the self-cleavage turned out to be 2.55.
Turning to GUUAACGGUCAUAGGCCAUGGAAACUAGGAGCACCAUUUCGCUGCCAGUGAAGAAAUGAACAAAGAAAAUCUGGGCCCGGCAGGCAUCAAAAGAAAUAGUCUUGCGCUCAUCCAGAAAGUCUGUAAUCAUUUUAAGGGUA [A78C A111U], the self-cleavage turned out to be 0.01.
In the case of GUUAACGGUCAUAGGCCAUGGAAACUAGGAGCACCAUUUCGCUGCCAGUGAAGAAAUGAACAAAGAAAAUCUGGGCCGGGCAGACAUCAAAAGAAAUAGUCUUGCGCUCAACCAGAAAGUCUGUAAUCAUUUUAAGGGUA [A78G G84A], the self-cleavage turned out to be 0.24.
Next, GUUAACGGUCAUAGGCCAUGGAAACUAGGAGCACCAUUUCGCUGCCAGUGAAGAAAUGAACAAAGAAAAUCUGGGCCGGGCAGGCAUCCAAAGAAAUAGUCUUGCGCUCAACCAGAAAGUCUGUAAUCAUUUUAAGGGUA [A78G A89C]: 0.43.
As to GUUAACGGUCAUAGGCCAUGGAAACUAGGAGCACCAUUUCGCUGCCAGUGAAGAAAUGAACAAAGAAAAUCUGGGCCGGGCAGGCAUCUAAAGAAAUAGUCUUGCGCUCAACCAGAAAGUCUGUAAUCAUUUUAAGGGUA [A78G A89U], the self-cleavage was 0.24.
With GUUAACGGUCAUAGGCCAUGGAAACUAGGAGCACCAUUUCGCUGCCAGUGAAGAAAUGAACAAAGAAAAUCUGGGCCCGGCAGGCAUCAAAAGAAAUAGUCUUGCGCUCAACCAGAAAGUCUGUGAUCAUUUUAAGGGUA [A78C A125G], the self-cleavage stood at 0.04.
Turning to GUUAACGGUCAUAGGCCAUGGAAACUAGGAGCACCAUUUCGCUGCCAGUGAAGAAAUGAACAAAGAAAAUCUGGGCCCGGCAGGCAUCAAAAGAAAUAGUCUUGCGCUCAACCAGAAAGUCUGUAACCAUUUUAAGGGUA [A78C U127C], the self-cleavage was 0.18.
For GUUAACGGUCAUAGGCCAUGGAAACUAGGAGCACCAUUUCGCUGCCAGUGAAGAAAUGAACAAAGAAAAUCUGGGCCGGGCAGGCAUCAAAAGAAAUAGUCUUGCGCUCAACCAGAAAGUCUGUAGUCAUUUUAAGGGUA [A78G A126G], the self-cleavage was 0.15.
In the case of GUUAACGGUCAUAGGCCAUGGAAACUAGGAGCACCAUUUCGCUGCCAGUGAAGAAAUGAACAAAGAAAAUCUGGGCCGGGCAGGCAUCAAAAGAAAUAGUCUUGCGCUCAGCCAGAAAGUCUGUAAUCAUUUUAAGGGUA [A78G A111G], the self-cleavage came out at 0.03.
Regarding GUUAACGGUCAUAGGCCAUGGAAACUAGGAGCACCAUUUCGCUGCCAGUGAAGAAAUGAACAAAGAAAAUCUGGGCCCGGCAGGCAUCAAAAGAAAUAGACUUGCGCUCAACCAGAAAGUCUGUAAUCAUUUUAAGGGUA [A78C U100A], the self-cleavage was found to be 0.11.
In the case of GUUAACGGUCAUAGGCCAUGGAAACUAGGAGCACCAUUUCGCUGCCAGUGAAGAAAUGAACAAAGAAAAUCUGGGCCGGGCAGGCAUCAAAAGAAAUAGUCUUGCGCUCAACCAGAAUGUCUGUAAUCAUUUUAAGGGUA [A78G A118U], the self-cleavage stood at 0.21.
For the variant GUUAACGGUCAUAGGCCAUGGAAACUAGGAGCACCAUUUCGCUGCCAGUGAAGAAAUGAACAAAGAAAAUCUGGGCCCGGCAGGCAUCAAAAGGAAUAGUCUUGCGCUCAACCAGAAAGUCUGUAAUCAUUUUAAGGGUA [A78C A94G], the self-cleavage came to 0.39.
As for GUUAACGGUCAUAGGCCAUGGAAACUAGGAGCACCAUUUCGCUGCCAGUGAAGAAAUGAACAAAGAAAAUCUGGGCCCGGCAGGCAUCAGAAGAAAUAGUCUUGCGCUCAACCAGAAAGUCUGUAAUCAUUUUAAGGGUA [A78C A90G], the self-cleavage is 0.16.
For GUUAACGGUCAUAGGCCAUGGAAACUAGGAGCACCAUUUCGCUGCCAGUGAAGAAAUGAACAAAGAAAAUCUGGGCCGGGCGGGCAUCAAAAGAAAUAGUCUUGCGCUCAACCAGAAAGUCUGUAAUCAUUUUAAGGGUA [A78G A82G], the self-cleavage was 0.13.
GUUAACGGUCAUAGGCCAUGGAAACUAGGAGCACCAUUUCGCUGCCAGUGAAGAAAUGAACAAAGAAAAUCUGGGCCGGGCAGGCAUCAAAAGAAAUAGUCUUGCGCUAAACCAGAAAGUCUGUAAUCAUUUUAAGGGUA [A78G C109A]: the self-cleavage is 0.05.
Regarding GUUAACGGUCAUAGGCCAUGGAAACUAGGAGCACCAUUUCGCUGCCAGUGAAGAAAUGAACAAAGAAAAUCUGGGCCGGGCAGGCAUCAAAAGAAAUAGUCUUGUGCUCAACCAGAAAGUCUGUAAUCAUUUUAAGGGUA [A78G C105U], the self-cleavage is 0.03.
Next, GUUAACGGUCAUAGGCCAUGGAAACUAGGAGCACCAUUUCGCUGCCAGUGAAGAAAUGAACAAAGAAAAUCUGGGCCCAGCAGGCAUCAAAAGAAAUAGUCUUGCGCUCAACCAGAAAGUCUGUAAUCAUUUUAAGGGUA [A78C G79A]: 0.16; GUUAACGGUCAUAGGCCAUGGAAACUAGGAGCACCAUUUCGCUGCCAGUGAAGAAAUGAACAAAGAAAAUCUGGGCUAGGCAGGCAUCAAAAGAAAUAGUCUUGCGCCCAACCAGAAAGUCUGUAAUCAUUUUAAGGGUA [C77U U108C]: 0.03; GUUAACGGUCAUAGGCCAUGGAAACUAGGAGCACCAUUUCGCUGCCAGUGAAGAAAUGAACAAAGAAAAUCUGGGCCGGGCAGGCAUCAAAAGAAAUAGUCUUGCGCUCAACCUGAAAGUCUGUAAUCAUUUUAAGGGUA [A78G A114U]: 0.01.
For GUUAACGGUCAUAGGCCAUGGAAACUAGGAGCACCAUUUCGCUGCCAGUGAAGAAAUGAACAAAGAAAAUCUGGGCCGGGCAGGCAUCACAAGAAAUAGUCUUGCGCUCAACCAGAAAGUCUGUAAUCAUUUUAAGGGUA [A78G A90C], the self-cleavage came to 0.12.
For the variant GUUAACGGUCAUAGGCCAUGGAAACUAGGAGCACCAUUUCGCUGCCAGUGAAGAAAUGAACAAAGAAAAUCUGGGCCGGGCAGGCAUCAUAAGAAAUAGUCUUGCGCUCAACCAGAAAGUCUGUAAUCAUUUUAAGGGUA [A78G A90U], the self-cleavage was 0.31.
Regarding GUUAACGGUCAUAGGCCAUGGAAACUAGGAGCACCAUUUCGCUGCCAGUGAAGAAAUGAACAAAGAAAAUCUGGGCCGGGCAGGCAUCAAAGGAAAUAGUCUUGCGCUCAACCAGAAAGUCUGUAAUCAUUUUAAGGGUA [A78G A92G], the self-cleavage was determined as 0.13.
For GUUAACGGUCAUAGGCCAUGGAAACUAGGAGCACCAUUUCGCUGCCAGUGAAGAAAUGAACAAAGAAAAUCUGGGCCGGGCAGGCUUCAAAAGAAAUAGUCUUGCGCUCAACCAGAAAGUCUGUAAUCAUUUUAAGGGUA [A78G A86U], the self-cleavage amounted to 0.1.
Regarding GUUAACGGUCAUAGGCCAUGGAAACUAGGAGCACCAUUUCGCUGCCAGUGAAGAAAUGAACAAAGAAAAUCUGGGCCGGGCAGGCAUCAAAAGAAAUAGUCUUGCGCUCAACCAGAAAGUCUGUAAUCGUUUUAAGGGUA [A78G A129G], the self-cleavage came out at 0.
As for GUUAACGGUCAUAGGCCAUGGAAACUAGGAGCACCAUUUCGCUGCCAGUGAAGAAAUGAACAAAGAAAAUCUGGGCCGGGCAGGCAUCAAAAGAAAUAGUCUUGCGCUCAACCAGAAAGUCUGUAAUCCUUUUAAGGGUA [A78G A129C], the self-cleavage was 0.11.
